From PMC314469, “Protein Interaction Networks by Proteome Peptide Scanning” (PLoS Biology, 2004) come the findings set out here.

Assay [1] deals with T1, amphyphisin SH3 (AMPH_HUMAN), P49418.
T1 chain: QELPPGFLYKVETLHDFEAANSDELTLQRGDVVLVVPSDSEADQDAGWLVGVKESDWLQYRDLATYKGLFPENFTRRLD
Put plainly: SPOT array.

In assay [2] the target is endophilin SH3 (SH3G2_HUMAN), Q99962. Put plainly: SPOT array.

Consider SVIPPDRPPGASAG [O43147 533-547], for which the results for the normalised SPOT signal, Boehringer light units (BLU); mean over the file's lines of this peptide in assay [1] and in assay [2] were 53.4 and 72.8, respectively.

For SSRDLSRPPKKGEL [O94930 369-382], the normalised SPOT signal, Boehringer light units (BLU); mean over the file's lines of this peptide in assay [1] turned out to be 119; in assay [2], 109.

On to SVIKPPRPDRGWFV [Q9BY07 808-821], for which the results for the normalised SPOT signal, Boehringer light units (BLU); mean over the file's lines of this peptide in assay [1] and in assay [2] were 1520 and 4940, respectively.

With SWPLLERPWKAFLN [Q9H6E9 501-514], the normalised SPOT signal, Boehringer light units (BLU); mean over the file's lines of this peptide came out at 12.2 in assay [1] and 179 in assay [2].

Take SSVALKRPPPAPPV [P78325 741-754]: the normalised SPOT signal, Boehringer light units (BLU); mean over the file's lines of this peptide in assay [1] was 24.3; in assay [2] it was 21.2.

On to SSRRPVRPGRRGLG [Q14160 1547-1560], for which the normalised SPOT signal, Boehringer light units (BLU); mean over the file's lines of this peptide was 7270 in assay [1] and 1850 in assay [2].

SSTNPFRPQKVSSF [P30670 54-67]: the normalised SPOT signal, Boehringer light units (BLU); mean over the file's lines of this peptide in assay [1] is 77.5; in assay [2] it was 1350.

Consider TASPPARPPAQVGL [Q9NT59 32-46], for which the normalised SPOT signal, Boehringer light units (BLU); mean over the file's lines of this peptide in assay [1] turned out to be 34.4; in assay [2], 365.

Consider SSPLLKRPVRTQAV [Q9Y5M0 381-394], for which the figures for the normalised SPOT signal, Boehringer light units (BLU); mean over the file's lines of this peptide in assay [1] and in assay [2] were 1640 and 195, respectively.

Turning to SWERPRRPNGDIVG [P16144 1660-1673], the normalised SPOT signal, Boehringer light units (BLU); mean over the file's lines of this peptide in assay [1] came out at 3700; in assay [2], 2770.

In the case of SDKAFSRPDKLRLH [Q9NQV6 563-576], the normalised SPOT signal, Boehringer light units (BLU); mean over the file's lines of this peptide in assay [1] was found to be 117; in assay [2], 54.6.

With SVNHIKRPHSVPSS [O75179 569-582], the normalised SPOT signal, Boehringer light units (BLU); mean over the file's lines of this peptide in assay [1] was determined as 16.7; in assay [2], 133.

For SSKPIKRPVLDPFI [Q96AA8 422-435], the normalised SPOT signal, Boehringer light units (BLU); mean over the file's lines of this peptide in assay [1] came out at 35.4; in assay [2], 189.

On to SSHSPYRPPTNYRN [Q8TEB6 103-117], for which the normalised SPOT signal, Boehringer light units (BLU); mean over the file's lines of this peptide in assay [1] turned out to be 51.9; in assay [2], 681.

For SSYTFKRPVTRITP [Q8WWY6 31-44], the normalised SPOT signal, Boehringer light units (BLU); mean over the file's lines of this peptide in assay [1] was 18.6; in assay [2], 89.6.

On to STQSLKRPGTSQAG [O94820 555-568], for which the normalised SPOT signal, Boehringer light units (BLU); mean over the file's lines of this peptide in assay [1] is 42; in assay [2] it was 5.6.

Turning to SSSAPRRPSSLQSL [P39880 1446-1459], the figures for the normalised SPOT signal, Boehringer light units (BLU); mean over the file's lines of this peptide in assay [1] and in assay [2] were 37.2 and 1050, respectively.

Take SDGNPRRPSPVLRH [P51172 134-147]: the normalised SPOT signal, Boehringer light units (BLU); mean over the file's lines of this peptide in assay [1] came out at 60.5; in assay [2], 577.

As for STSFPRRPLAVEGG [O00124 234-247], the normalised SPOT signal, Boehringer light units (BLU); mean over the file's lines of this peptide in assay [1] came out at 53; in assay [2], 132.

Turning to SVTDIRRPRLYLLQ [Q9NYY3 591-604], the normalised SPOT signal, Boehringer light units (BLU); mean over the file's lines of this peptide in assay [1] is 35.9; in assay [2], 96.5.

Take SVIKPTRPDRGWFV [Q9HBU5 808-821]: the normalised SPOT signal, Boehringer light units (BLU); mean over the file's lines of this peptide in assay [1] was 4960; in assay [2] it was 3200.

SVVGIRRPFQIPPG [Q9NPJ5 421-434]: the normalised SPOT signal, Boehringer light units (BLU); mean over the file's lines of this peptide in assay [1] was 33.8; in assay [2], 127.

On to SSGPPPKPPVSSGS [Q9NR59 803-817], for which the normalised SPOT signal, Boehringer light units (BLU); mean over the file's lines of this peptide in assay [1] was found to be 81.4; in assay [2] it was 122.

For STAGPLRPPPPGAG [Q9Y6T1 410-424], the normalised SPOT signal, Boehringer light units (BLU); mean over the file's lines of this peptide in assay [1] is 61.4; in assay [2], 1850.

In the case of SSTLPQKPPYSFID [Q9H0N0 213-227], the figures for the normalised SPOT signal, Boehringer light units (BLU); mean over the file's lines of this peptide in assay [1] and in assay [2] were 56.1 and 27.3, respectively.

For SWQILARPWRAFFK [Q9H6E1 737-750], the normalised SPOT signal, Boehringer light units (BLU); mean over the file's lines of this peptide in assay [1] was found to be 1030; in assay [2], 73.5.

As to SVSGPKRPQDRVAV [P48200 444-457], the normalised SPOT signal, Boehringer light units (BLU); mean over the file's lines of this peptide came out at 38.9 in assay [1] and 67.2 in assay [2].

In the case of SSNTIRRPRNYSVG [O60825 472-485], the results for the normalised SPOT signal, Boehringer light units (BLU); mean over the file's lines of this peptide in assay [1] and in assay [2] were 31.8 and 7.4, respectively.

For SVEPPKRPTSRLIM [Q9UMX9 24-37], the normalised SPOT signal, Boehringer light units (BLU); mean over the file's lines of this peptide came to 36 in assay [1] and 480 in assay [2].

Turning to SSPGPKRPGNTLRK [O75962 1703-1716], the normalised SPOT signal, Boehringer light units (BLU); mean over the file's lines of this peptide in assay [1] worked out at 51.9; in assay [2], 619.

SYTRIKRPQDQLRF [P55055 405-418]: the normalised SPOT signal, Boehringer light units (BLU); mean over the file's lines of this peptide stood at 38.5 in assay [1] and 128 in assay [2].

As for SVSRPERPPESAAL [Q9Y256 12-26], the normalised SPOT signal, Boehringer light units (BLU); mean over the file's lines of this peptide in assay [1] amounted to 85.5; in assay [2] it was 102.

For SSPEPPRPAKRPRR [Q9P2A7 954-967], the results for the normalised SPOT signal, Boehringer light units (BLU); mean over the file's lines of this peptide in assay [1] and in assay [2] were 614 and 181, respectively.

SDTSPRRPLRPTPN [Q16456 13-26]: the results for the normalised SPOT signal, Boehringer light units (BLU); mean over the file's lines of this peptide in assay [1] and in assay [2] were 3520 and 1300, respectively.

Take SVSFIGRPWRVVDG [Q12789 1979-1992]: the normalised SPOT signal, Boehringer light units (BLU); mean over the file's lines of this peptide in assay [1] turned out to be 112; in assay [2], 78.1.

For the molecule AAVPPPRPPIPEER [Q16099 865-879], the values for the normalised SPOT signal, Boehringer light units (BLU); mean over the file's lines of this peptide in assay [1] and in assay [2] were 419 and 4290, respectively.

Take SSVRPPRPKKEPQT [Q9H875 7-20]: the normalised SPOT signal, Boehringer light units (BLU); mean over the file's lines of this peptide in assay [1] is 2350; in assay [2], 1060.

As for SYRRLDRPTRIRFS [Q9H2X0 201-214], the normalised SPOT signal, Boehringer light units (BLU); mean over the file's lines of this peptide in assay [1] is 780; in assay [2], 2240.
